Assay results reported in paper PMC7360063, “Brassinosteroids regulate root meristem development by mediating BIN2-UPB1 module in Arabidopsis” (PLoS Genetics, 2020).
Each block holds one molecule with its values, some of them ahead of it.

T1: MBP-BIN2 (Arabidopsis, UniProt Q39011 1-380)
T1 construct: BIN2, Arabidopsis, At4g18710; source: E. coli, purified
T1 sequence (looked up): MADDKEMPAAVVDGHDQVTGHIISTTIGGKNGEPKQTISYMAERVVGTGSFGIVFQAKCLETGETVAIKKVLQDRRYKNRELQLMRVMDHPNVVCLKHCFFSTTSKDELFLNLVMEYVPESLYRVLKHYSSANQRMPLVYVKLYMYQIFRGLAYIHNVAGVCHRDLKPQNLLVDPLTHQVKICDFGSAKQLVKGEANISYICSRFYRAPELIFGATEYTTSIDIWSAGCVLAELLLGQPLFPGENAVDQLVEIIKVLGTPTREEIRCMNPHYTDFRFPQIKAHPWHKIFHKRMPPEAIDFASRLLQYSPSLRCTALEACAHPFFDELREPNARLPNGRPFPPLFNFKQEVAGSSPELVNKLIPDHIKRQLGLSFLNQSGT

B1: His-SUMO-UPB1 (natural protein, Arabidopsis, UniProt O22901 1-102, looked up)
chain: MGVTLEGQRKESIWVLMRRQRARRALVKKIMIRPRKSVEASRRPCRAIHRRVKTLKELVPNTKTSEGLDGLFRQTADYILALEMKVKVMQTMVQVLTETNCV
notes: UPB1, Arabidopsis, At2g47270; The phosphorylation methods speak of a 6x His tag; source: E. coli, purified
B2: GST-PRE3 (natural protein, Arabidopsis, UniProt Q9CA64 1-93, looked up)
chain: MSGRRSRSRQSSGTSRISEDQINDLIIKLQQLLPELRDSRRSDKVSAARVLQDTCNYIRNLHREVDDLSERLSELLANSDTAQAALIRSLLTQ
notes: PRE3, Arabidopsis, At1g74500; source: E. coli, purified
B3: GST-PRE2 (natural protein, Arabidopsis, UniProt Q9LXG5 1-94, looked up)
chain: MSSSRRSRQASSSSRISDDQITDLISKLRQSIPEIRQNRRSNTVSASKVLQETCNYIRNLNKEADDLSDRLTQLLESIDPNSPQAAVIRSLING
notes: PRE2, Arabidopsis, At5g15160; source: E. coli, purified

How the values were obtained:
PRE3 = PRE3 (UniProt Q9CA64); test: anti-HA co-IP, anti-GFP blot; details: reference: wild type UPB1; sites S37,S41
PRE2 = PRE2 (UniProt Q9LXG5); test: anti-HA co-IP, anti-GFP blot; details: reference: wild type UPB1; sites S37,S41
MBP-BIN2 = molecular target: T1, MBP-BIN2; test: pull-down; His pull-down: about 30 ug His-SUMO-UPB1 with 30 ug MBP-BIN2, GST-PRE2 or GST-PRE3 in 400 ul 20 mM Tris-HCl pH 8.0, 150 mM NaCl, 0.2% Triton; about 3 h at 4 C; blots with anti-His, anti-MBP, anti-GST; details: both partners purified
His-SUMO-UPB1 = molecular target: B1; test: as above; details: both partners purified

binding against the reference (PRE3): stronger | binding against the reference (PRE2): stronger
Molecule: UPB1 (UPBEAT1) (from UniProt O22901) UPB1 S37A S41A

Molecule: B1
binding result (MBP-BIN2): binds

Molecule: B2
binding result (His-SUMO-UPB1): binds

Molecule: B3
binding result (His-SUMO-UPB1): binds
